Data: article doi:10.1101/2025.07.14.664640 (bioRxiv, 2025)

Molecular target: T1, MBP-HS1BP3 full length (UniProt Q53T59 1-392)
T1 sequence (looked up): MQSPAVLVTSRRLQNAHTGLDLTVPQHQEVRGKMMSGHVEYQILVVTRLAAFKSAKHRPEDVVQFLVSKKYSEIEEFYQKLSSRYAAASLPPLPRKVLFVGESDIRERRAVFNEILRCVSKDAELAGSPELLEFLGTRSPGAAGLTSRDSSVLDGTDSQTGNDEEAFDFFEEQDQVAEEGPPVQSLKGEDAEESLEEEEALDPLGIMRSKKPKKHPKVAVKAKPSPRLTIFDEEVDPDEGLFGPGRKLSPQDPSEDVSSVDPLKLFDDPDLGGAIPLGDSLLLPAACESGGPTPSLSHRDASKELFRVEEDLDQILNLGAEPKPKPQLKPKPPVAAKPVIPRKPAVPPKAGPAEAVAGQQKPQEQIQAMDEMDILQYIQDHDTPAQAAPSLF
Assay: pull-down

binding result: binds
B1: GST-SH3 (SH3 domain of cortactin fused to GST) (domain or fragment)
chain: not shown
